Molecular target: the molecule itself
Assay: crystal structure; X-ray, 1.63 Å, space group C222(1); crystals from Morpheus condition H02 (10% w/v PEG 8000, 20% v/v ethylene glycol, amino acid mix, 0.1 M MES/imidazole pH 6.5), 18°C; two chains in the asymmetric unit

B1: (R)-selective ω-transaminase from Aspergillus terreus (enzyme, UniProt Q0C8G1 1-325, looked up)
chain: MASMDKVFAGYAARQAILESTETTNPFAKGIAWVEGELVPLAEARIPLLDQGFMHSDLTYDVPSVWDGRFFRLDDHITRLEASCTKLRLRLPLPRDQVKQILVEMVAKSGIRDAFVELIVTRGLKGVRGTRPEDIVNNLYMFVQPYVWVMEPDMQRVGGSAVVARTVRRVPPGAIDPTVKNLQWGDLVRGMFEAADRGATYPFLTDGDAHLTEGSGFNIVLVKDGVLYTPDRGVLQGVTRKSVINAAEAFGIEVRVEFVPVELAYRCDEIFMCTTAGGIMPITTLDGMPVNGGQIGPITKKIWDGYWAMHYDAAYSFEIDYNERN
modifications: pyridoxal 5'-phosphate (PLP) covalently bound to Lys180 (internal aldimine), present in part; the other state is free Lys180 with a PLP-amino acid adduct (ligand code PGD)
notes: ω-(R)-transaminase from Aspergillus terreus, gene codon-optimized for E. coli; Cloned through NcoI and XhoI into pET28a(+); also called AT-ωTA; (R)-ω-transaminase; source: E. coli BL21-Gold(DE3), pET28a(+), purified (Ni Sepharose, SEC on Superdex 200); not shown: His-Tag, C-terminal, kept
B1 was tested. Which “stoichiometry N” value did it give?
The value was 2.
